T1: FZD5 CRD (Homo sapiens, UniProt Q13467)
T1 construct: K29-T156; GPI anchor signal (C); expressed in transfected cells; host or cells: CHO cells, lentiviral pLenti-puro
T1 sequence (Q13467 29-156): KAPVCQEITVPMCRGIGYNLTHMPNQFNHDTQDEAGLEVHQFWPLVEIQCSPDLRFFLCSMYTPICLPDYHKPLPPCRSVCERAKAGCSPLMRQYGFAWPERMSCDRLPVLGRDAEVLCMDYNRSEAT

T2: FZD4 CRD (Homo sapiens, UniProt Q9ULV1)
T2 construct: E42-V167; GPI anchor signal (C); expressed in transfected cells; host or cells: CHO cells, lentiviral pLenti-puro
T2 sequence (Q9ULV1 42-167): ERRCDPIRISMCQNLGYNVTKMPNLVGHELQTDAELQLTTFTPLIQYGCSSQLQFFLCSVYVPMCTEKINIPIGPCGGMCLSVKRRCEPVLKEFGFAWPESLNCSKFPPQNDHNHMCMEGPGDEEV

T3: FZD6 CRD (Homo sapiens, UniProt O60353)
T3 construct: S20-P146; GPI anchor signal (C); expressed in transfected cells; host or cells: CHO cells, lentiviral pLenti-puro
T3 sequence (O60353 20-146): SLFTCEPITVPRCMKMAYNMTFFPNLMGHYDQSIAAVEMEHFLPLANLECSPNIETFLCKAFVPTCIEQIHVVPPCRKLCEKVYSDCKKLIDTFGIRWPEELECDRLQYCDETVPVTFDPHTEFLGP

T4: FZD3 CRD (Homo sapiens, UniProt Q9NPG1)
T4 construct: CRD of FZD1, FZD2, FZD3, FZD4, FZD5, FZD6, FZD7, FZD8, FZD9 or FZD10; GPI anchor signal (C); expressed in transfected cells; host or cells: CHO cells, lentiviral pLenti-puro
T4 sequence (Q9NPG1 23-136 limits assumed): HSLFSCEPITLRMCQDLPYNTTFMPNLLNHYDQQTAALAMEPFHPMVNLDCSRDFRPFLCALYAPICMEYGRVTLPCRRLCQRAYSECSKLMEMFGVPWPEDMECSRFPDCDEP


Columns and labels:
HPAFII cells = assay: Effect of anti-FZD5 Fabs on proliferation of pancreatic cancer cell lines (percent growth inhibition); type: cell-based, human; conditions: for percent growth inhibition, HPAFII 2 μg/ml: Fab 2 μg/ml; for percent growth inhibition, HPAFII 10 μg/ml: Fab 10 μg/ml
Method: (§1) The effect of presently disclosed anti-FZD5 Fabs on proliferation of RNF43 loss-of-function mutant pancreatic cancer cell lines HPAFII, PATU8988S and ASPC-1; and on pancreatic cancer cell line RWP1, was tested at […] and 10 μg/ml.

ASPC-1 cells [1] = assay: as above; type: cell-based, human; conditions: Fab 10 μg/ml
Method: as §1

PATU8988S cells = assay: as above; type: cell-based, human; conditions: Fab 10 μg/ml
Method: as §1

RWP1 cells [2] = assay: as above; type: cell-based, human; conditions: Fab 10 μg/ml
Method: as §1

RWP1 cells [3] = assay: as above; type: cell-based, human; conditions: Fab 2 μg/ml
FZD5 CRD = target: T1, FZD5 CRD; assay: Immunofluorescence of anti-FZD5 Fab binding to CHO cells overexpressing Frizzled CRD; parameters: key: −: no binding; +: very weak binder; ++: weak binder; +++: good binder; ++++: very good binder
Procedure, shortened: (§2)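 Specificity of anti-FZD5 Fabs was tested on CHO cells displaying membrane-anchored Frizzled CRDs (myc-tagged, GPI-linked), one family member per line. Detection was by immunofluorescence.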

FZD4 CRD = target: T2, FZD4 CRD; assay: as above; parameters: key: −: no binding; +: very weak binder; ++: weak binder; +++: good binder; ++++: very good binder
Procedure, shortened: as §2

FZD6 CRD = target: T3, FZD6 CRD; assay: as above; parameters: key: −: no binding; +: very weak binder; ++: weak binder; +++: good binder; ++++: very good binder
Procedure, shortened: as §2

FZD3 CRD = target: T4, FZD3 CRD; assay: as above; parameters: key: −: no binding; +: very weak binder; ++: weak binder; +++: good binder; ++++: very good binder
Procedure, shortened: as §2

FZD1 CRD = target: T5, FZD1 CRD (Homo sapiens, UniProt Q9UP38); assay: as above; parameters: key: −: no binding; +: very weak binder; ++: weak binder; +++: good binder; ++++: very good binder
T5 construct: D112-P238; GPI anchor signal (C); expressed in transfected cells; host or cells: CHO cells, lentiviral pLenti-puro
Procedure, shortened: as §2

ASPC-1 cells [4] = assay: Effect of anti-FZD5 Fabs on proliferation of pancreatic cancer cell lines (percent growth inhibition); type: cell-based, human; conditions: Fab 2 μg/ml

| Molecule | Immunofluorescence binding, Frizzled CRD overexpressed on CHO cells: FZD5 (FZD5 CRD) | Immunofluorescence binding, Frizzled CRD overexpressed on CHO cells: FZD4 (FZD4 CRD) | Immunofluorescence binding, Frizzled CRD overexpressed on CHO cells: FZD6 (FZD6 CRD) | Immunofluorescence binding, Frizzled CRD overexpressed on CHO cells: FZD3 (FZD3 CRD) | Immunofluorescence binding, Frizzled CRD overexpressed on CHO cells: FZD1 (FZD1 CRD) | percent growth inhibition, HPAFII 2 μg/ml (HPAFII cells) [%] | percent growth inhibition, HPAFII 10 μg/ml (HPAFII cells) [%] | percent growth inhibition, ASPC-1 10 μg/ml (ASPC-1 cells [1]) [%] | percent growth inhibition, PATU8988s 10 μg/ml (PATU8988S cells) [%] | percent growth inhibition, RWP1 10 μg/ml (RWP1 cells [2]) [%] | percent growth inhibition, RWP1 2 μg/ml (RWP1 cells [3]) [%] | percent growth inhibition, ASPC-1 2 μg/ml (ASPC-1 cells [4]) [%] |
| --- | --- | --- | --- | --- | --- | --- | --- | --- | --- | --- | --- | --- |
| Fab-2932: anti-FZD5 Fab with antibody variable region Fv-2932; CDR SEQ ID NOs: 35, 36, 71, 108, 147, 153 (antibody, V domains shown) VH: EVQLVESGGGLVQPGGSLRLSCAASGFNISYSYMHWVRQAPGKGLEWVASIYSSYSSTSYADSVKGRFTISADTSKNTAYLQMNSLRAEDTAVYYCARGALDYWGQGTLVTVSS VL: DIQMTQSPSSLSASVGDRVTITCRASQSVSSAVAWYQQKPGKAPKLLIYSASSLYSGVPSRFSGSRSGTDFTLTISSLQPEDFATYYCQQWYGSFALITFGQGTKVEIK | ++++ | − | − | − | − | −0.17 | 3.21 | 28.62 | −8.85 | 25.69 | 32.22 | 28.71 |
| Fab-2936: anti-FZD5 Fab with antibody variable region Fv-2936; CDR SEQ ID NOs: 35, 36, 75, 112, 151, 179 (antibody, V domains shown) VH: EVQLVESGGGLVQPGGSLRLSCAASGFNISYYYMHWVRQAPGKGLEWVASIYSSSGSTSYADSVKGRFTISADTSKNTAYLQMNSLRAEDTAVYYCARAAMDYWGQGTLVTVSS VL: DIQMTQSPSSLSASVGDRVTITCRASQSVSSAVAWYQQKPGKAPKLLIYSASSLYSGVPSRFSGSRSGTDFTLTISSLQPEDFATYYCQQWYAASLITFGQGTKVEIK | ++++ | − | − | − | − | −0.56 | 12.21 | 22.02 | −23.52 | −5.97 | 0.02 | 17.01 |

Further lines, with some results ahead:

| Immunofluorescence binding, Frizzled CRD overexpressed on CHO cells: FZD5 (FZD5 CRD) | Immunofluorescence binding, Frizzled CRD overexpressed on CHO cells: FZD4 (FZD4 CRD) | Immunofluorescence binding, Frizzled CRD overexpressed on CHO cells: FZD6 (FZD6 CRD) | Immunofluorescence binding, Frizzled CRD overexpressed on CHO cells: FZD3 (FZD3 CRD) | Immunofluorescence binding, Frizzled CRD overexpressed on CHO cells: FZD1 (FZD1 CRD) | Molecule | percent growth inhibition, HPAFII 2 μg/ml (HPAFII cells) [%] | percent growth inhibition, HPAFII 10 μg/ml (HPAFII cells) [%] | percent growth inhibition, ASPC-1 10 μg/ml (ASPC-1 cells [1]) [%] | percent growth inhibition, PATU8988s 10 μg/ml (PATU8988S cells) [%] | percent growth inhibition, RWP1 10 μg/ml (RWP1 cells [2]) [%] | percent growth inhibition, RWP1 2 μg/ml (RWP1 cells [3]) [%] | percent growth inhibition, ASPC-1 2 μg/ml (ASPC-1 cells [4]) [%] |
| --- | --- | --- | --- | --- | --- | --- | --- | --- | --- | --- | --- | --- |
| ++++ | − | − | − | − | Fab-2930: anti-FZD5 Fab with antibody variable region Fv-2930; CDR SEQ ID NOs: 35, 36, 69, 107, 145, 153 (antibody, V domains shown) VH: EVQLVESGGGLVQPGGSLRLSCAASGFNLSYYYIHWVRQAPGKGLEWVASIYPYSGSTSYADSVKGRFTISADTSKNTAYLQMNSLRAEDTAVYYCARGALDYWGQGTLVTVSS VL: DIQMTQSPSSLSASVGDRVTITCRASQSVSSAVAWYQQKPGKAPKLLIYSASSLYSGVPSRFSGSRSGTDFTLTISSLQPEDFATYYCQQWYGPYLITFGQGTKVEIK | −10.77 | 7.81 | 37.33 | −13.64 | 10.72 | 17.91 | 21.31 |
| ++++ | − | − | − | − | Fab-2934: anti-FZD5 Fab with antibody variable region Fv-2934; CDR SEQ ID NOs: 35, 36, 73, 110, 149, 155 (antibody, V domains shown) VH: EVQLVESGGGLVQPGGSLRLSCAASGFNISYSYMHWVRQAPGKGLEWVASIYSSSGSTSYADSVKGRFTISADTSKNTAYLQMNSLRAEDTAVYYCARGAIDYWGQGTLVTVSS VL: DIQMTQSPSSLSASVGDRVTITCRASQSVSSAVAWYQQKPGKAPKLLIYSASSLYSGVPSRFSGSRSGTDFTLTISSLQPEDFATYYCQQWYHYGLITFGQGTKVEIK | 3.40 | 20.44 | 36.76 | 1.78 | 0.90 | 7.90 | 26.80 |
| ++++ | − | − | − | − | Fab-2935: anti-FZD5 Fab with antibody variable region Fv-2935; CDR SEQ ID NOs: 35, 36, 74, 111, 150, 178 (antibody, V domains shown) VH: EVQLVESGGGLVQPGGSLRLSCAASGFNIYYYYIHWVRQAPGKGLEWVASIYPSSGSTSYADSVKGRFTISADTSKNTAYLQMNSLRAEDTAVYYCARAAFDYWGQGTLVTVSS VL: DIQMTQSPSSLSASVGDRVTITCRASQSVSSAVAWYQQKPGKAPKLLIYSASSLYSGVPSRFSGSRSGTDFTLTISSLQPEDFATYYCQQWYGGYALITFGQGTKVEIK | −9.18 | −10.62 | 24.63 | −22.12 | 10.15 | −14.51 | 4.75 |
| ++++ | +++ | − | − | + | Fab-2933: anti-FZD5 Fab with antibody variable region Fv-2933; CDR SEQ ID NOs: 35, 36, 72, 109, 148, 177 (antibody, V domains shown) VH: EVQLVESGGGLVQPGGSLRLSCAASGFNLYSSYMHWVRQAPGKGLEWVASIYSSYGYTSYADSVKGRFTISADTSKNTAYLQMNSLRAEDTAVYYCARTVRGSKKPYFSGWAMDYWGQGTLVTVSS VL: DIQMTQSPSSLSASVGDRVTITCRASQSVSSAVAWYQQKPGKAPKLLIYSASSLYSGVPSRFSGSRSGTDFTLTISSLQPEDFATYYCQQFWWYASWLFTFGQGTKVEIK | −14.19 | −6.12 | 19.44 | −17.17 | 27.16 | −21.16 | −1.03 |

Reference: patent US20210253718A1, “FRIZZLED5 PROTEIN-BINDING AGENTS” (Modmab Therapeutics Corporation, priority 2016, published 2021)
